From patent US7169901 (Genentech, dated 2007)

Target: rhVEGF165 (human, UniProt P15692 27-191, limits assumed)
Assay: cell-based or functional assay

Chain of rhVEGF165 (P15692 other isoform, or with tags, fused parts or gaps limits assumed): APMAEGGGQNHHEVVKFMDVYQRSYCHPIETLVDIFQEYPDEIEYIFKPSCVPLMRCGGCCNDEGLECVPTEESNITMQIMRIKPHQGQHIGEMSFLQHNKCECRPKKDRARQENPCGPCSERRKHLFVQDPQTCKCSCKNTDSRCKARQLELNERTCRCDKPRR

B1: Y0313-1 (Fab, V domains shown)
VH: EVQLVESGGGLVQPGGSLRLSCAASGYDFTHYGMNWVRQAPGKGLEWVGWINTYTGEPTYAADFKRRFTFSLDTSKSTAYLQMNSLRAEDTAVYYCAKYPYYYGTSHWYFDVWGQGTL
VL: DIQLTQSPSSLSASVGDRVTITCRANEQLSNYLNWYQQKPGKAPKVLIYFTSSLHSGVPSRFSGSGSGTDFTLTISSLQPEDFATYYCQQYSTVPWTFGQGTKVEIKR
potency in inhibiting VEGF-induced HuVEC growth ([3H]-thymidine), relative to Y0192 Fab: 30 fold
